Holding throughout (test): double-filter binding
For data set [1], the system named is Mini-PhΔSAM. Particulars: apparent Kd, n=4; Filter binding: 60 mM KCl, 12 mM Hepes pH 7.9, 0.24 mM EDTA, 4% glycerol, 0.02 nM probe, 1 h at room temperature.
Data set [2] concerns Mini-Ph-ML. The following applies: apparent Kd, n=3; Filter binding: 60 mM KCl, 12 mM Hepes pH 7.9, 0.24 mM EDTA, 4% glycerol, 0.02 nM probe, 1 h at room temperature.
Data set [3] relates to Mini-Ph. The following applies: apparent Kd, n=10; Filter binding: 60 mM KCl, 12 mM Hepes pH 7.9, 0.24 mM EDTA, 4% glycerol, 0.02 nM probe, 1 h at room temperature.
For data set [4], the system named is Mini-Ph EH. Particulars: apparent Kd, n=5; Filter binding: 60 mM KCl, 12 mM Hepes pH 7.9, 0.24 mM EDTA, 4% glycerol, 0.02 nM probe, 1 h at room temperature.

For 150-bp DNA probe, the Kd worked out at 990 nM in data set [1], 190 nM in data set [2], 37 nM in data set [3] and 706 nM in data set [4].

These data come from PMC7644731.
